± gives the standard deviation of the averaged measurements.
What follows are sequences tested on ATP (assay: switch fluorescence ratio, 500 uM ATP over buffer (Cy3 cluster intensity, sum of 5 cycles each) (fold (ratio)); higher = stronger signal-on switching upon ATP binding; sequences stand for … in TCGTCGGCAGCGTCAGATGTGTATAAGAGACAGTTTTTTTTTTTTTTTTTTTTTTTTT…TC). Conditions: aptamer strand: ATP DNA aptamer (quencher-CACCTGGGGGAGTATTGCGGAGGAAGG + anchor), 100 nM annealed; ATP concentration: 500 uM.
Procedure, shortened: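 Between each of five buffer/ATP cycles, the flow-cell was stripped with NaOH and re-annealed. Each cycle imaged Cy3-labelled switching-strand clusters, annealed to 100 nM quencher-labelled ATP aptamer on a modified Illumina MiSeq flow-cell, first in selection buffer and then after 15 min with 500 uM ATP at 22 °C. The fluorescence ratio is summed target-cycle over summed buffer-cycle Cy3 intensity per cluster, averaged per switch-domain sequence, with clusters outside 100-1000 RFU excluded.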
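Further: ATP exposure 15 min at 22 °C before imaging.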

Row | Sequence | switch fluorescence ratio
1 | CGTCTTCCTG | 1 ± 0.056
2 | GAAGCGGGGG | 1.05 ± 0.02
3 | GTTGTTTTGA | 0.994 ± 0.022
4 | CTATAGAAAT | 0.9991 ± 0.0091
5 | CGTTGAATAA | 1.017 ± 0.0089
6 | GGGAGGGGGA | 1.01 ± 0.035
7 | CGGACAGGGT | 0.992 ± 0.013
8 | TTAAAAGGTC | 1.027 ± 0.0083
9 | AAAGAGTAAT | 1.006 ± 0.0045
10 | ATCGAGAACG | 0.993 ± 0.014
11 | GGCCTGAGGG | 0.9854 ± 0.0032
12 | GCACCGAAAA | 1.29 ± 0.4
13 | CTAGACAGTT | 0.997 ± 0.02
14 | ATTATGTAGA | 0.9958 ± 0.0091
15 | CTGTTCTGGC | 0.962 ± 0.12
16 | GTTTCAAACG | 0.971 ± 0.025
17 | AATGGGCCGG | 1.013 ± 0.0076
18 | GCCATAATTA | 0.981 ± 0.018
19 | TACTGGGGCT | 1.04 ± 0.034
20 | ATGAGTCGGA | 0.975 ± 0.055
21 | AATTCCTGGT | 1.04 ± 0.023
22 | AATACGTAGT | 1.04 ± 0.078
23 | CGGACGTTGG | 0.973 ± 0.045
24 | ATGTCAGCGC | 1 ± 0.044
25 | CTGTTAGAGA | 1.01 ± 0.014

Row | Sequence | switch fluorescence ratio
26 | AAACGGCGTT | 0.9725 ± 0.0013
27 | TAGTGGTCCA | 0.98 ± 0.03
28 | TTGGTTGGTT | 0.978 ± 0.019
29 | TTTAAATCTC | 0.963 ± 0.014
30 | ACTCTATAAT | 1.146 ± 0.0092
31 | TAGAGGGGCT | 0.993 ± 0.03
32 | GAAGTTAGGT | 0.9981 ± 0.0087
33 | GTTTTAGGCT | 0.973 ± 0.061
34 | TATATATCTC | 0.9917 ± 0.0089
35 | GTTAACAGTT | 0.989 ± 0.027
36 | ATGAATTTTT | 0.992 ± 0.042
37 | TTTTGTGAGT | 1.01 ± 0.04
38 | GTGACAGGTC | 0.974 ± 0.038
39 | TGGGTGGTCA | 0.987 ± 0.06
40 | GGATATAGGG | 1 ± 0.034
41 | GCCGTCTGGC | 1.02 ± 0.045
42 | GCTTCGTGTT | 1.05 ± 0.003
43 | GCTAAACGAT | 1.03 ± 0.055
44 | TTAGGATGA | 1.01 ± 0.027
45 | TGGGGATGTT | 1.01 ± 0.049
46 | TTGTGGAATG | 1.015 ± 0.0094
47 | TACGCTTAGC | 1.1 ± 0.031
48 | CAAATAACGT | 0.9893 ± 0.0097
49 | TTGGCCGCAT | 1.24 ± 0.09
50 | AGTAGGAGT | 0.998 ± 0.033

Row | Sequence | switch fluorescence ratio
51 | AGGTGTTTGC | 1.05 ± 0.028
52 | AGGGGGGCCT | 0.989 ± 0.087
53 | CACAGAGGGG | 1.02 ± 0.028
54 | AAGGTTTGCC | 0.965 ± 0.028
55 | TACTTTAGAC | 1.05 ± 0.011
56 | GCTTTCTCGT | 1.03 ± 0.029
57 | ACTTAAGAAA | 1.16 ± 0.13
58 | GCCTGCCGTT | 0.996 ± 0.033
59 | TTTGGTAGAA | 0.996 ± 0.025
60 | CGGGTCCATT | 0.981 ± 0.0079
61 | TTATACGTTG | 1.02 ± 0.019
62 | TTGTGTTCTT | 1.01 ± 0.026
63 | AAGATTGGTG | 0.991 ± 0.041
64 | TTCGTGAATT | 1.11 ± 0.1
65 | CCGGGGTGTA | 1.32 ± 0.36
66 | AGAAGGGCGG | 0.99 ± 0.037
67 | GTAAGGAAAG | 1.04 ± 0.062
68 | GACTGAGGGG | 1.02 ± 0.05
69 | TGTTTTTTAA | 0.99 ± 0.044
70 | AGGAATGTTT | 0.985 ± 0.0099
71 | TTTGAGTCAT | 0.9713 ± 0.0092
72 | ATGTCAGGTG | 4.1 ± 0.71
73 | TAAAGATTTC | 1.01 ± 0.069
74 | CGGATCTCGC | 1.03 ± 0.01
75 | GTGAAGAAGG | 1.13 ± 0.2

Row | Sequence | switch fluorescence ratio
76 | TTTTTAATGA | 1.02 ± 0.052
77 | GGGACGATGG | 0.9857 ± 0.0013
78 | GTGGAAGCCG | 1.013 ± 0.0034
79 | TTCGATGGGG | 0.993 ± 0.048
80 | TGCGTAAAAT | 1.008 ± 0.0028
81 | TGGGGGACGA | 0.954 ± 0.032
82 | GGGGGATTAG | 0.992 ± 0.022
83 | CGGTTTTAGG | 1.0066 ± 0.00065
84 | AGGAGCGGTT | 1.02 ± 0.061
85 | TGTTTACTTT | 0.98 ± 0.014
86 | TTGTCGGTCT | 0.972 ± 0.018
87 | TCCAGTGGCT | 1 ± 0.017
88 | TCAGGCTGGG | 1.02 ± 0.016
89 | AAAATGGGCA | 1.02 ± 0.024
90 | TTGGCGGGAT | 1.03 ± 0.017
91 | AGACTGTTGA | 1.04 ± 0.019
92 | TTTACCCTAT | 1.06 ± 0.015
93 | TCATGATTTT | 0.9992 ± 0.0048
94 | AGTTTAAGGA | 1.01 ± 0.025
95 | GTCGGACATG | 0.993 ± 0.073
96 | GGGGCATGGC | 1.02 ± 0.028
97 | TCCCCTGTCG | 1.07 ± 0.085
98 | TAAACACGTG | 0.987 ± 0.053
99 | TAAAAATCGT | 0.997 ± 0.021
100 | TTATTTAATC | 1.01 ± 0.038

Row | Sequence | switch fluorescence ratio
101 | GATGGTGTGA | 0.978 ± 0.014
102 | TTAACGGTCG | 1.02 ± 0.072
103 | CAGAATCAAC | 1.05 ± 0.014
104 | GCGGAATAGG | 1.038 ± 0.0062
105 | TGACGCCGAA | 1.07 ± 0.019
106 | GGGGAGTTAG | 1.01 ± 0.013
107 | TTCCAGCGGT | 1.03 ± 0.017
108 | GTAAGGGTTG | 0.961 ± 0.012
109 | GATAGGGGGA | 0.984 ± 0.058
110 | TTTCATGATG | 0.998 ± 0.02
111 | TTTAGCTTAT | 0.9798 ± 0.0056
112 | GATCTTATCG | 0.984 ± 0.026
113 | GGGCTTCTTT | 0.996 ± 0.034
114 | TTTAAGATTT | 1.01 ± 0.03
115 | ATGATGTAAT | 0.995 ± 0.051
116 | TTCGTGTTAC | 1.32 ± 0.26
117 | GCCGGAGTGG | 0.982 ± 0.024
118 | TAGTGATTGC | 0.988 ± 0.025
119 | ATCGAACCTT | 1.55 ± 0.45
120 | TGTGTAATTG | 1.01 ± 0.032
121 | TTGTTTTACT | 1.027 ± 0.0056
122 | TTGTTTTAGG | 0.987 ± 0.047
123 | ACGGTCATAT | 1.08 ± 0.027
124 | GCTAAAAGTT | 0.995 ± 0.021
125 | TTTAACGGTG | 1.02 ± 0.027

Row | Sequence | switch fluorescence ratio
126 | TGTTCGGGAT | 0.977 ± 0.01
127 | AATAGACCTT | 1.13 ± 0.17
128 | ATGCGTAGGT | 0.988 ± 0.049
129 | CGGGCTGGGG | 0.993 ± 0.039
130 | TAAGAGACGG | 0.991 ± 0.056
131 | GGTATTAGAT | 1.01 ± 0.049
132 | AGGGCCTCTT | 0.986 ± 0.028
133 | CAATTATGTA | 0.963 ± 0.016
134 | TTGAAAATGG | 0.992 ± 0.026
135 | ACTTCAAGGG | 1.26 ± 0.34
136 | AGGGATTACG | 1.01 ± 0.038
137 | TAAAGCAGGA | 0.993 ± 0.03
138 | AGAATGAGTG | 1.026 ± 0.0048
139 | CCAACTTTTC | 1.0433 ± 0.00094
140 | CGGCTTACCC | 1.14 ± 0.2
141 | TTTAGTGCGG | 0.973 ± 0.033
142 | ACTCGTCACA | 1.15 ± 0.059
143 | TTGTTTCGGG | 0.978 ± 0.018
144 | TTCGTAAGTT | 0.99485 ± 0.00084
145 | TTGCGGTGGG | 1.03 ± 0.018
146 | CATTCTACTG | 1.04 ± 0.021
147 | TTAAGTTTGT | 0.994 ± 0.022
148 | CAGGTCATGC | 1.02 ± 0.058
149 | GGATCGGGGC | 0.994 ± 0.046
150 | TTAGGGTGCC | 1.02 ± 0.034

Row | Sequence | switch fluorescence ratio
151 | GAACGTCGGA | 1.028 ± 0.0027
152 | TTATTAGGGG | 0.983 ± 0.028
153 | GCGAGCAGTA | 1.01 ± 0.028
154 | TCTGTGTAGC | 1 ± 0.027
155 | ATAGTTTGAT | 1.01 ± 0.022
156 | GTTAACCAGC | 1.05 ± 0.016
157 | AATTTCCTTT | 0.988 ± 0.036
158 | TTGAGTGAGC | 0.988 ± 0.025
159 | TTGTAGACGT | 1.02 ± 0.0093
160 | GTGGGGGGTT | 0.993 ± 0.026
161 | CTGGCATGTA | 1.0141 ± 0.00098
162 | GCGGAAAGGA | 1 ± 0.038
163 | AAGTTTAGTG | 0.976 ± 0.019
164 | CGGAACGCGA | 4.09 ± 0.093
165 | AGAATGCTTT | 0.9971 ± 0.0034
166 | ATAAAGGTCT | 0.984 ± 0.0053
167 | GGGTGTGTGT | 1.02 ± 0.017
168 | TTTAGTGTTG | 0.957 ± 0.041
169 | TTAAAATCGC | 0.957 ± 0.022
170 | CCCTTGGATA | 0.993 ± 0.021
171 | CGTACGGGTT | 0.9959 ± 0.0039
172 | GAGGATATGG | 0.98 ± 0.021
173 | TTCCAGCTTT | 1.02 ± 0.024
174 | TCGTTGCTAG | 0.982 ± 0.059
175 | CGGGGATTCG | 0.996 ± 0.026

Row | Sequence | switch fluorescence ratio
176 | CTACGGGCTG | 0.9898 ± 0.0069
177 | TCTTGGAGCT | 1.01 ± 0.019
178 | ATAGGCTAAA | 1.04 ± 0.044
179 | GGGTACAGCT | 1.014 ± 0.0047
180 | ATGAAAGGGT | 0.998 ± 0.023
181 | GGGAATACTT | 1 ± 0.038
182 | TGTGAGAGTT | 0.9826 ± 0.0098
183 | TTGCTCGAAA | 0.987 ± 0.075
184 | TAAACAGTGA | 1.01 ± 0.038
185 | ATACTTGATT | 0.994 ± 0.025
186 | AAATAGTGCC | 1.036 ± 0.0029
187 | ATGGTTTTG | 0.975 ± 0.047
188 | TTCTACACAG | 1.04 ± 0.032
189 | TTAGTTTTGA | 1 ± 0.031
190 | ATTGCGACAC | 1.23 ± 0.035
191 | ATTTGGTATC | 0.997 ± 0.017
192 | ATCGGGGGCC | 0.973 ± 0.042
193 | CCGTATATGT | 1.19 ± 0.029
194 | CGCTAGGAGG | 0.997 ± 0.036
195 | GACTGGCTT | 0.9868 ± 0.0073
196 | GTTTTCCCGT | 1.03 ± 0.027
197 | TTCGTAGGCA | 1.02 ± 0.042
198 | CGTTTTTGTT | 1 ± 0.025
199 | CCGGTGGCTG | 1 ± 0.033
200 | TAAGCTTGGC | 1.02 ± 0.026
